Measured values from patent publication US20240239899A1 (Memorial Sloan Kettering, published 2024).

Columns and labels:
[1] = target: T1, HLA-A2 molecule on T2 cells (T2 cells alone, not pulsed) (human); experiment: flow cytometry, titration of 6B1 on unpulsed T2 cells (FIG. 1C)
T1 construct: Stands both for the target 'T2 cells alone' and for the partner of the pulsed peptides in the T2 stabilization assays; also called HLA-A02

[2] = target: CCCK phosphopeptide/HLA-A2 complex on T2 cells (human, phosphoserine at position 7); experiment: flow cytometry, T2 cells pulsed with 20 µg/ml peptide (FIG. 11)
[3] = target: b-catenin phosphopeptide/HLA-A2 complex on T2 cells (human, phosphoserine at position 4); experiment: as above
[4] = target: T1, HLA-A2 molecule on T2 cells (T2 cells …); experiment: flow cytometry, unpulsed T2 cells, secondary anti-His-tag mAb

binding result [2]	binding result [3]	binding result [4]	Binder	binding result [1]
no binding	no binding	–	6B1 mAb (TCR mimic, full length human IgG1) (antibody, V domains shown, Full length human IgG1; Conjugated to APC for direct staining of tumor cell lines; also called mAb 6B1; Mab 6B1) VH: EVQLLESGGGLVQPGGSLRLSCAASGFTFSSYAMSWVRQAPGKGLEWVSEISGGGGYTDYADSVKGRFTISRDNSKNTLYLQMNSLRAEDTAVYYCARQMYYYYGMDVWGQVTTVTVSS VL: EIVLTQSPGTLSLSPGERATLSCRASQSVSANYLAWYQQKPGQAPRLLIYGASSRATGIPDRFSGSGSGTDFTLTISRLEPEDFAVYYCQQSYQRPLTFGQGTKVEIK	no binding (tested: 10 µg/ml to 0.1 µg/ml)
–	–	no binding (tested: 1 or 0.1 µg/ml)	6B1 BisAb h2+2 (L2K scFv inserted into the upper hinge of 6B1 IgG1) (bispecific antibody) heavy: not shown light: EIVLTQSPGTLSLSPGERATLSCRASQSVSANYLAWYQQKPGQAPRLLIYGASSRATGIPDRFSGSGSGTDFTLTISRLEPEDFAVYYCQQSYQRPLTFGQGTKVEIKRTVAAPSVFIFPPSDEQLKSGTASVVCLLNNFYPREAKVQWKVDNALQSGNSQESVTEQDSKDSTYSLSSTLTLSKADYEKHKVYACEVTHQGLSSPVTKSFNRGEC	–
–	–	no binding (tested: 1 or 0.1 µg/ml)	6B1 BisAb C2+2 (L2K scFv fused to the C-terminus of the 6B1 IgG1 heavy chain) (bispecific antibody, copies: 2 + 2) heavy: not shown light: EIVLTQSPGTLSLSPGERATLSCRASQSVSANYLAWYQQKPGQAPRLLIYGASSRATGIPDRFSGSGSGTDFTLTISRLEPEDFAVYYCQQSYQRPLTFGQGTKVEIKRTVAAPSVFIFPPSDEQLKSGTASVVCLLNNFYPREAKVQWKVDNALQSGNSQESVTEQDSKDSTYSLSSTLTLSKADYEKHKVYACEVTHQGLSSPVTKSFNRGEC	–
